Measured values reported in the DeepSol protein solubility set.

Test: soluble on expression in E. coli; label from the status in PepcDB or PDB records

Row | Sequence | soluble on expression in E. coli
1 | MGSDKIHHHHHHEVDLYKGGSLREPAYLYPFDQENKNVTAEITIKTNSTINLELLDVYFAPLKYNKHLLIMLTQDDCKPSIYPRTWASINGKPLSGQYYYHYEQLKQDDLPPDIYYLGKTLGCTDGTGKEVRFSFTATLAADDNYMAEESIINLGYSKDNYRFYGRNGILWEDVIDIVNYGNSIAFHNVNTKEIHNIDSIQKHYLIGQDSIQKRLSGRKCKTLSEPDGNIDYTTAAINLDDIKTITAERGEKVYPFHNLTNLENHTLNRVFHDSPDDFKQVIEQERSIPTVDRCAINIGVHSTDAFWTDFLLWLNDTYGKDGEDCIWMPSQEEYYEYNYYRMHGKIEKSADGSTLKLIINLPSQEYFYYPSVTINLKGLKKEDIKSIESNSAVTGLSYGNYQDGVMLNIDCRRFLVEHATHFVEQYEKDKTNQSNKADALYFVNMLKESSKKAELLNRIK | not soluble
2 | MGSDKIHHHHHHMSTQTSIEWTEMTWNPIVGCTKVSPGCKHCYAENMAHRLQAMGTPGYENGFKLSLRPEKLREPLQRKKPTIYFVNSMSDLFHEKVPDHYIDQVFEVIREATQHTFQILTKRAERLADYFSKRTPPTNAWLGVSVEDKAYGVPRIDCLRRVNATIRFLSAEPLLEDLGEIDLTDIHWVIVGGESGNKARPMQQEWVDNIHRQCDVSGSAFFFKQWGGWGADGVKRSKKANGRLLNGQTWDEIPLLNLA | not soluble
3 | DFKLDFKDIKGQEKAKRACMIAALGMHNILFEGSPGSGKSMCAKRLVYIMPPQSLSEILMQNAYMSLDSKDCEFTKIRAFRHPHHTSTRASIFGGGTKNARIGEVALANGGVLFFDEFPHFNKQIIESLREPLEDHKIHISRVNSKITYETKFSFIAAQNPCPCGNL | not soluble
4 | MGSDKIHHHHHHMREEWLFSRYLNRKRVQRAASLGAGRAETEIALLELGAVEHFDLFDVSSVGIEYAKSIAEEKGFGHKVTCHVGPIGCAELNENTYDLITFVASLHHMEPLAETLERANRALTQHGIIWCANEYIGPDRFDYPVAHAAIAKSFFQQIPPGLRNHWHRELQFPTPQEVAEVDPTEAPCSSKIEPTMRDMFPALEIMPLYGAFAFMVFWGLNHDALYETPEGTELTRFILGMDKALTDAGILPTYFAHIIARKNNAPRQQIHRPGRHSSALLYRYAQRAASILRHLKIR | not soluble
5 | SNAVFGVKEWECEVLSNKNVSTFIKEFVVKLPEGETMNFKSGSYAQIKIPKYNIRYADYDIQDRFRGDWDKMDAWSLTCKNEEETVRAYSMANYPAEGNIITLNVRIATPPFDRAANKWKAGIKPGISSSYIFSLKPGDKVMMSGPYGDFHIQDTDAEMLYIGGGAGMAPLRAQILHLFRTLKTGRKVSYWYGARSKNEIFYEEDFREIEREFPNFKFHIALSDPQPEDNWTGYVGFIHQVIYDNYLKDHDAPEDIEYYMCGPGPMANAVKGMLENLGVPRNMLFFDDFG | soluble
6 | MRKYAAIALCTSAILAGCNTSNVSQEPKKEKKVQEVAIQKEALQEQGKISYTPITHESTNTSIHITDLKDSLNEVQYKIWRTADGKERAKSFSSKEKEKQFTIPFDIKEFEGKRGEFQIEATGMKEDGKTIPLTKSIITFEQKVPVLMYHAIDDYHGQGIKDLFVSPANFEAQMKHLKDNGYTLLTFERWGDINKVNKPIFVTFDDGMKNNMNAFRVLQKLKDDTFKPAATEYMIVDNVDVEGALSTSEIKEMVDSGIFSVQSHTATHADLPKITNYEEELKGSKEKLEKITGKPVIAIAYPFGHVDDKVVTETKKYYQFATTTKPGQFITKGEPDELLKMKRVRIHHTTTVEQFASSIK | not soluble
7 | MGSDKIHHHHHHMQFGAKPLFENISVKFGGGNRYGLIGANGCGKSTFMKILCGDLDPSGGNVSLDVNERLGKLSQNQFGYEEFNLIDTVIMGHRELWKVKQERDRIYSLPEMSEEDGITVANLEMDFAEMDGYTAESRAGELLLGVGIGIDSHFGLMSEIAPGLKLRVLLAQALFSDPDVLLLDEPTNNLDIDTIRWLQDMLNQRSSTMVIISHDRYFLNSVCTHMADLDYGELRVYPGNYDEYMQAATQARERLLSDNAKKKAQISELQTFVARFSANASKAKQATSRARQIDKIKLDEVKASSRVNPFIRFEQEKKLFRNALVIENLTKGYDTPLFKDLNLIVEVGERIAVLGENGVGKTTLLRTLIHDIPQDAGTIQWSENANIGYYAQDHESDFANEMTLFEWMSQWRKPEDDDQSVRGILGRMLFGSDDIKKSVKVLSGGEKGRMLFGKLIMQKANILVLDEPTNHMDMESIESLNNALEMYEGTLIFVSHDRAFVSSLANRILEVTHTGVNDFRGTYDEFLASKGIEV | not soluble
8 | RGSLTIYIGYSPGVGKTFEMLSNAIELFQSNVDIKIGYIEPHQRDETNALAEQLPKITTNFTKHGSHHFQYLDVDRIIEESPTIVLIDELAHTNISRDRHEKRYMDIEEILNHGIDVHTTLNIQHIESLSSQIELMTGVHVKERVPDYFIMSADVLEVVDISPEQLIKRLKAGKVYKKDRLDVAFSNFFTYAHLSELRTLTLRTVADLMSDKEKVRHNHKTS | not soluble
9 | GPGSMHAAPYEEVALSDMLLEDGKLRYPCPCGDLFELSLSEFAKGSVVAECPTCSLTVRIICNEEERHAFLLRCNALNGVRDVVIA | not soluble
10 | MGSDKIHHHHHHMFQNKKHRIALISIDGDPAVEIGQEEAGGQNVYVRQVGYALAQQGWQVDMFTRRSNSEQSAIAQHGPNCRTIRLKAGPAEFIGRDNLFDHLPEFIEEFQKFQQRQGFHYSLIHTNYWLSSWVGMELKKQQSLIQVHTYHSLGAVKYRSIGDVPVIAAQRLAVEKACLETIDCVVATSPQEQKHMRVLVSSKGNIEMIPCGTDTDKFGGIQRTAAREKLGIAPDAKIVLYVGRFDRRKGIETLVRAVAKSSLRGEANLQLVIGGGSRPGQSDAIERDRIASIVTELGLENCTTFAGRLDETVLPFYYAAADVCVVPSHYEPFGLVAIEAMASQTPVVASDVGGLQFTVVPEVTGLLAPPKDEVAFAAAIDRILINPTWRDQLGEAARQRTEIAFSWYSVGFRLTQLYTRLLAQTASNTRPRIAA | not soluble
11 | MGSDKIHHHHHHMKVTVTTLELKDKITIASKALAKKSVKPILAGFLFEVKDGNFYICATDLETGVKATVNAAEISGEARFVVPGDVIQKMVKVLPDEITELSLEGDALVISSGSTVFRITTMPADEFPEITPAESGITFEVDTSLLEEMVEKVIFAAAKDEFMRNLNGVFWELHKNLLRLVASDGFRLALAEEQIENEEEASFLLSLKSMKEVQNVLDNTTEPTITVRYDGRRVSLSTNDVETVMRVVDAEFPDYKRVIPETFKTKVVVSRKELRESLKRVMVIASKGSESVKFEIEENVMRLVSKSPDYGEVVDEVEVQKEGEDLVIAFNPKFIEDVLKHIETEEIEMNFVDSTSPCQINPLDISGYLYIVMPIRLA | soluble
12 | MKKTIQQLVLERILILDGAMGTMIQQYNLREEDFRNERFAHIPGQLKGNNDLLCLTRPDVIRDIHRKYLEAGADIIETNTFSSTTISMADYHVQEYVREMNQAAVKLAREVADEYTALNPDKPRFVAGSVGPTNKTCSMSPDVNNPAYRAVTYDEMADAYQQQMEAMLESGVDALLIETIFDTLNAKAAILAAERAMKATGVKVPVMLSVTVSDTGGRTLSGQTLEAFLASVQHADIFSVGLNCSFGARQLKPFLEQLAARAPYYISAYPNAGLPNSLGKYDQTPADMAHEVKEYVHEGLINIIGGCCGTTDAYIAEYPALIAGAKPHIPVCKPDCMWLSGLELLEVKPEINFVNVGERCNVAGSRKF | not soluble
13 | MAMYEQRYNSPFLVHDDGPNAPLEHQFAISKLTFELGLLYYQKRTIPFIPLPETPLNEGPGHAVPDVILYDAVAEDTKVIIEVCQNNGQKNDLKKVIRLIEDTEYGILEGFVYNYKSREWFRYRKGDGGAATASSVSEVMGIDMGGFV | not soluble
14 | MNKKVGESTLYEWLVSYQKLEQEIYYLDWELETYKKELERWCDPEDLGRYTLTKDSKASKLEDIIEDLEKRLAWKMNSIYDLRKLVYSFKGLDQKILVAKYIEGLSLKQIAGEFGHSYGYIRNKHNQILKKIEKSDNDVTIPIDKS | not soluble
15 | MKIITCYKCVPDEQDIAINNADGTLDFSKADSKISQYDLNAIEAACQLKQQLGDAQVVAMSVGGKALTNAKGRKDVLSRGPDELIVVIDDQFEQALPQHTATALAAAAQKSGFDLLICGDGSSDLYAQQVGLLVGEALNIPAINGVSKILSLTDSTLTVERELEDEVETLSIPLPAVIAVSTDINTPQIPSMKAILGAAKKPVQVWSPADIGLNSVPAYSAQQVAAPKQRERQRVVIEGDGEEQIAAFVENLRKII | not soluble
16 | MGSSHHHHHHGGTGENLYFQGGSGHPASLAAHAFGDASTRSPTHTLPSRCHLFLSLSLSTAAVRRSRASPPLAPTRRTHECLSASHTRTCRQSASFSPLEHPFSFSVAILSSTMPREIKTLKEFLAICSRKDARCVKVKHNPSATKFKVRCSRYLYTLVVNDKKKADKIERSIHPSVKKIAVTARSHAKTNAGSKQ | not soluble
17 | MAFTESDVYNNEAFFKQYMKRRYRENSPNELIEKPAFFQLIGDVKGKKILDLGCGDAIFGKELLEKDCHSYTGIEGSELMYEKAKKQLENKNGIVHFLNLKDYTYPPATFDLVTSRLALHYIEHLPIIFQNVYETLKTNGTFTFSVQHPVITSSFESLQTSGKRTSWLVDDYFKTGKRVEPWIDQKVIKYHRTTEEYFTLLQQAGFTITNLKEATPNQTYFQSAEEYERRLRIPLFLLFSCRKLEHHHHHH | soluble
18 | MRGKAMNIQRFIEKRKARGLSQSELAKGICTQVTVSRFEKNGQVPTLKILIQLCNRLELPLGELFPRVGIKQPEILEKMEEAEFFLITSEHDQLQTILKNIPFDEIKDSQLLLEYYYLQGFVMIFQNASLMDCLFTFEKLLFEEQKYTSDIYRLLAFTGIGMAYAKEGEIEKAEFYFNKVFKEIYLYTIQSMEDTWRVLNVVFHCGVFYAEKGDLETSDALLEYAISICSDNHVTYYLARAAFQLAKNALAEEKPQEQILELLQDARAYAKINKNRILLEAIQTLKETILSKGN | not soluble
19 | MGSDKIHHHHHHMNVLITGMNGTVAPVLADVFRSHHYDITAWDRSVVSTTDSAVMEAFIDRVQPDLLLHIGMGPAEFAETLARLSFERNIPFLFTSTASVYSDEQKGPHDPAIVPAATDEYGAYKRTCERLIQAVNPDAYIVRIGWQIGQAAGSNNMIDYLERHAIAGPIPASTQWYPSCAFLEDTAQTLYTIVTTYTPGLYLANGNASHSFFDIVTALNILHGSKWHITEDNSMTRDDRMTDSRVVIRPISEHLSFVH | not soluble
20 | MALVVQKYGGSSLESAERIRNVAERIVATKKAGNDVVVVCSAMGDTTDELLELAAAVNPVPPAREMDMLLTAGERISNALVAMAIESLGAEAQSFTGSQAGVLTTERHGNARIVDVTPGRVREALDEGKICIVAGFQGVNKETRDVTTLGRGGSDTTAVALAAALNADVCEIYSDVDGVYTADPRIVPNAQKLEKLSFEEMLELAAVGSKILVLRSVEYARAFNVPLRVRSSYSNDPGTLIAGSMEDIPVEEAVLTGVATDKSEAKVTVLGISDKPGEAAKVFRALADAEINIDMVLQNVSSVEDGTTDITFTCPRSDGRRAMEILKKLQVQGNWTNVLYDDQVGKVSLVGAGMKSHPGVTAEFMEALRDVNVNIELISTSEIRISVLIREDDLDAAARALHEQFQLGGEDEAVVYAGTGR | soluble
21 | MGSDKIHHHHHHMPVRRIALITNGYPDIYARERSFILPELKALLAYGHQVTLVPVREVTEVDPDLPDGVAVERRLAHLYRPWQLPATVLWMMFRGYFWREAWQCLGRGRLRYLGHFFKESVRATNTLRMQSALRDYDVLYTYWFKGESTGISLMPGTHARRLTRAHGYDLYEDRPNNEGYIPYREMTLPRLDRVVVLSEEARAYLEQRYPASVGRTVVSPLGVAHESDENPGPEADRIVLVSCSYPTPNKRLPLIGQLAAAVACARPSVKVVWMHFGCRREEAGLPVDFAGPPNLSVQFAGEAPNEHIRRWYATRPVSFFVNLSQSEGQPVSIMEAMAFGIPVMATGVGGIPEMLRHGGGMTLPEQPDVNAVAREMLSLLDDPSRYQAMREAARETQLAYFNTSANHRTLADLIGEF | not soluble
